Data taken from the nanobody polyreactivity screen of Harvey et al. (2022).

Assay: yeast display, Sf9 membrane polyspecificity reagent, FACS + sequencing; frameworks hold sequencing errors
How it was run: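 Nanobodies from a synthetic yeast display library (Saccharomyces cerevisiae BJ5465), induced 36–48 hours with galactose, were stained 1 hour at 4 °C with 10% biotinylated, detergent-solubilized Sf9 membrane reagent, enriched on streptavidin microbeads, then FACS-sorted. Anti-HA (expression) and streptavidin (reagent binding) fluorescence set low and high (top ~1%) gates. Polyreactivity labels come from the gate of origin. Genes were colony-PCR amplified, MiSeq 2 × 250 sequenced and filtered by CDR length.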

| Sequence | polyreactivity (PSR sort gate) |
| --- | --- |
| QVQLVESGGGLVQAGGSLRLSCAASGITFKYYAMGWYRQAPGKERELVAAITRGGSTYYADSVKRRFTISRDNAKTTVYLQMNSLKPVDTAVYYCNKARTYELYWGQGTQVTVSS | high polyreactivity |
| QVQLVESGGGLVQAGGSLRLSCAASGITFKYYTMAWYRQAPGKERELVAAISRSGGSTYYADSVKGRFTISRDNAKNTVYLQMMSLKPEDTAVYYCAAERGAYRGVTFTYGYWGQGTQVTLSS | high polyreactivity |
| QVQLVESGGGLVQAGGSLRLSCAASGITFLHYAMGWYRQAPGKERELVARITYSGSSTYYADSVKGRFTISRDNAKNTVYLQMNSLKPEDTAVYYCNARASWGRWSRTGTPRYDYWGQGTQVTVSS | high polyreactivity |
| QVQLVESGGGLVQAGGSLRLSCAASGITFLHYAMGWYRQAPGQERELVAAIDYSGGSTYYADSVKGRFTISRDNAKNTVYLEMKSLKPEDTAVYYCNARVPRYNGGSTMEYWGQGTQVTVSS | high polyreactivity |
| QVQLVESGGGLVQAGGSLRLSCAASGITFLPYAMGWYRQAPGKERELVAAITRGGGSTYADSVKGRFTISRDNAKNSVYFQMISLKPEDTAVYYCAKLYGRGSWYEDYDYWGQGTQVTVSS | low polyreactivity |
| QVQLVESGGGLVQAGGSLRLSCAASGITFNLNDMGWYRQAPGKERELVAAITSGGNTSYADSVKGRFTISRDNAKNTVYLQMNSLKPEDTAVYYCAADLHTELYKMDYWGQGTQVTVSS | low polyreactivity |
| QVQLVESGGGLVQAGGSLRLSCAASGITFNPYTMGWYRQAPGKERELVADINRGGDTTYADSVKGRFTISRDNAKNTVYLQMNSLKPEDTAVYYCAKRLVQWMDYWGQGTQVTVSS | low polyreactivity |
| QVQLVESGGGLVQAGGSLRLSCAASGITFNTYTMVWYTQAPGKERELVAAISGSSGRTYYADSVKGRFTISRDNAKNTVYLQMNSLNPEDTAVYYCAAYAVESYKYDYWGHGTQVTVSS | high polyreactivity |
| QVQLVESGGGLVQAGGSLRLSCAASGITFNVLAMGWYRQAPGKEREFVAAISTRDGTTYADSLKGRFTISRDNAKNTVYLQMNSLKPEDTAVYYCAAAYYYDGQQGDFDYWGQGTQVTVSS | low polyreactivity |
| QVQLVESGGGLVQAGGSLRLSCAASGITFNVNAMGWYRQAPGKERELVARITTSGGSTSYADSVKGRFTISRDNAKNTVYLQMNSLKPEDTAVYYFAADRARYYSEYDYWGQGTQVTVSS | low polyreactivity |
| QVQLVESGGGLVQAGGSLRLSCAASGITFNYNAMGWYRQAPGKERELVARITWSGTRTYYADSVKGRYTISRDNAKNTVYLQMNSLKPEDTAVYYCNADPYARYYWGQGTQVTVSS | high polyreactivity |
| QVQLVESGGGLVQAGGSLRLSCAASGITFPDYAMGWYRQAPGKERELVAAISRGVNTYYADSVKGRFTISRDNAKNTVYLQMNSLKPEDTAVYYCNRRGSSGYDYWGQGSQVTVSS | low polyreactivity |
| QVQLVESGGGLVQAGGSLRLSCAASGITFPGNAMGWYRQAPGKERELVAGISDGDSTNYADSVKGRFTISRDNAKNTVYLQMNSLKPEDTAVYYCNAQGTTETSGGGFFRGMDYWGQGTQVTVSS | low polyreactivity |
| QVQLVESGGGLVQAGGSLRLSCAASGITFPGYAMGWYRQATGKERELVAVIRKSGTSTYYADSVKGRFTISRDTAKNTVYLQMNSLKPEDTAVYYCAAGGPSTLDDYWGQGTQVTVSS | low polyreactivity |
| QVQLVESGGGLVQAGGSLRLSCAASGITFPINAMGWSRQAPGKEREFVATISFSGASTYYADSVKGRFTISRDNAKNTVYLQMNSLKPEDTAVYYCAADLSLSTGGRAFPTYGYWGQGTQVTVSS | high polyreactivity |
| QVQLVESGGGLVQAGGSLRLSCAASGITFPLYAMGWYRQAPGKERELVATISGRGGSTYYADSVKGRFTISRDNAKNTVYLQMNSLKPEDTAVYYCNADFRSPYFLLSWYHSGDYWGQGTQVTGSS | low polyreactivity |
| QVQLVESGGGLVQAGGSLRLSCAASGITFPLYVMGWSRQAPGKERELVAAISASGGSTYADSVKGRFTISRDNAKNTVYLQMNSLKPEDTAVYYCNADVYVGYDYDYWGQGTLVTVSS | low polyreactivity |
| QVQLVESGGGLVQAGGSLRLSCAASGITFPNYTMGWYRQAPWKERELLAAISYNGGGTYYADSVNGRFTISRYKAKNTVYVQKNSLKPEDTAVYYCAALGLYGDYLRYDYWGQGTQVSVSS | high polyreactivity |
| QVQLVESGGGLVQAGGSLRLSCAASGITFPRYAMGWYRQAPGKERELVAAISKSGGRTYYADSVKGRFTISRDNAKNTVYLQMISLKPEDTAVYYCAADPLLGYLSHYYWGQGTQVTVSS | high polyreactivity |
| QVQLVESGGGLVQAGGSLRLSCAASGITFPRYAMGWYRQAPGKERELVATITRSGGGTYYADSVKGRFTISRDNAKNTVYLQMNSLKPEDTAVYYCAAGALQRGVYGYGYWGQGTQVTVSS | high polyreactivity |
| QVQLVESGGGLVQAGGSLRLSCAASGITFPSYVMGWYRQAPGKERELVAAISWRGGSTYYADSVKGRFTISRDNAKNTVYLQMNSLKPEDTAVYYCAAGSARDDDYWGQGTQVTVSS | high polyreactivity |
| QVQLVESGGGLVQAGGSLRLSCAASGITFPYYAMGWYREAPGKERELVAAITQSGGSTYYADSVKGRFTISRDNAKNTVYLQMNSLKPEDTAVYYCAADSSRSVNYYRYDYWGQGTQVTLSS | low polyreactivity |

| Sequence | polyreactivity (PSR sort gate) |
| --- | --- |
| QVQLVESGGGLVQAGGSLRLSCAASGITFPYYAMGWYRQAPGKERELVAAISAGGTRTYYADSVKGRFTISRDNAKNNVYLQMNSLKPEDTAVYYCAARVWPIVQNYYWGQGTQVTVSS | high polyreactivity |
| QVQLVESGGGLVQAGGSLRLSCAASGITFPYYAMGWYRQAPGKERELVAAITIRSGRTYYADSVKGRFTISRDNAMNTVYLQMNSLKPEDTAVYYCAARLSNTYGYWGQGTQVTVSS | high polyreactivity |
| QVQLVESGGGLVQAGGSLRLSCAASGITFPYYAMGWYRQAPGKERELVASINRSGGTNYADSVKGRFTISRDNAKNTVYLPMNSLKPVDTAVYYCAAPGRYGEYDYWGQGTQVNVSS | low polyreactivity |
| QVQLVESGGGLVQAGGSLRLSCAASGITFPYYGMGWYRQAPGKERELVAAISRGGRTNYADSVKGRFTISRDNAKNTVYLQMNSLKPEDTAVYYCNTRTWSVFAKSDYWGQGTQVTVSS | high polyreactivity |
| QVQLVESGGGLVQAGGSLRLSCAASGITFQNYAMGWYRQAPGKEMELVAAITRSGGRTYYADSVKGRFTNSRDNANYTVYLQMNSLKQEDTAVYYCAVYGIGRPYWYDYWGQGTQVTVSS | high polyreactivity |
| QVQLVESGGGLVQAGGSLRLSCAASGITFQNYAMGWYRQSPGKERELVAAITRSGGRTYYADSVKGRFTISRDNAKNTVYLQINSLKPEDTAVYYCAFYGIGRPYWYDYWGQGTQVTVSS | high polyreactivity |
| QVQLVESGGGLVQAGGSLRLSCAASGITFQSNAMGWYRQAPGKERELVAAIDWRGDSTYYADSVKGRFTISRDNAKNTVYLQMNSLKPEDTAVYYCNADISGSGQWDGYDYWGQGTQVTVSS | low polyreactivity |
| QVQLVESGGGLVQAGGSLRLSCAASGITFQWNALGWYRQAPGTERELVAAITRSGGRTYYADSVKGRFTISRDNAKNTVYLQMYSLKPEDTAVYYCAARYWDNPYWFDYWGQGTQVTVSS | high polyreactivity |
| QVQLVESGGGLVQAGGSLRLSCAASGITFQYYAMGWYRQAPGKERELVAAISSGGSTYYADSVKGRFTISRDNAKNTVYLQMNILKPEDTAVYYCAAKRVFFGLNYDYWGQGTQVTVSS | high polyreactivity |
| QVQLVESGGGLVQAGGSLRLSCAASGITFQYYAMGWYRQAPGKERELVAAITSSGVSTYYADSVKGRFTISRDNAKNTVYLQMNSLKPEDTAVYYCNTVVRGWSSSAYDDWGQGTQVTVSS | low polyreactivity |
| QVQLVESGGGLVQAGGSLRLSCAASGITFQYYDMGWYRQAPGKEREFVAAISWRSGRTYYADSVKGRFTISRDNAKNTVYLQMNSLKPDDTAVYYCTAALYGVTTDMDYWGQGTQVTVSS | high polyreactivity |
| QVQLVESGGGLVQAGGSLRLSCAASGITFRFNAMGWYRQAPGKEREFVAAITYSGDSTYYADSVKGRFTISRDNAKNTVYLQMNSLKPEDTAVYYCAADASSKLYDYWGQGTQVTVSS | low polyreactivity |
| QVQLVESGGGLVQAGGSLRLSCAASGITFRFYAMGWYRQAPGKERELVAVISRGGGTTYYADSVKGRFTISRDNAKNTVYLQMNSLKPEDTAVYYCNAVIAWYRSDEYDYWGQGTQVTVSS | high polyreactivity |
| QVQLVESGGGLVQAGGSLRLSCAASGITFRGNAMGWYRQAPGKERELVATISSGGITNYADSVKGRFTISRDNAKNTVYLQMNSLKPEDTAVYSCAADLFVHKPRYQYSFDYWGQGTQVTVSS | low polyreactivity |
| QVQLVESGGGLVQAGGSLRLSCAASGITFRHNTMGWYRQAPGKERELVSTNYADSVKGRFTISRDNAKNTVYLQMNSLKPEDTAVYYCNADGTFEYDYWGQGTQVTVSS | low polyreactivity |
| QVQLVESGGGLVQAGGSLRLSCAASGITFRNYAMGWYRQAPGKERELVAAITTSGSRTYYADSVKGRFTISRDNAKNTVYLQMNSLKPEDTAVYYCAAEKAPWQYYDFEYWGQGTQVTVSS | high polyreactivity |
| QVQLVESGGGLVQAGGSLRLSCAASGITFRNYARGWYRQAPGKERELVAAITTSGSRTYYEDSVKGRFTISRDNAKKTVYLQMNSLKPEDTAVYYCAAQQVPWQYYDFEYWGQGTQVTVSS | high polyreactivity |
| QVQLVESGGGLVQAGGSLRLSCAASGITFRRNAMGWYRQAPGKERELVARITGSGGSTYYADSVKGRFTISRDNAKNTVYLQMNSLKPEATAVYYCATERYGKYAMDYWGQGTQVTVSS | high polyreactivity |
| QVQLVESGGGLVQAGGSLRLSCAASGITFRRYAMGWYRQAPGKERELVASITRGGSTSYADSVKGRFRFSRDNAKNTVYLQMNSLKPEDTAVYYCAADAFRGFYWGQGTQVTVSS | high polyreactivity |
| QVQLVESGGGLVQAGGSLRLSCAASGITFRRYAMGWYRQAPGPEREFVATISGIGGNTYYADSVKGRFTISRANAKNPVYLQMNSLKPEDPAVYYCAADLWAGTYGEYDYWGQGPQVTVSS | high polyreactivity |
| QVQLVESGGGLVQAGGSLRLSCAASGITFRRYVMGWYRQAPGKERELVARISSDGSTSYADSVKGRFTISRNNAKNTVYLQMNSLKPEDTAVYYCAAVHQWYVRYSTGYNYWGQGTQVTVSS | high polyreactivity |
